Reference: a protein production outcome set (Wang et al. 2014)

Assay: label from the status in PepcDB records

| Sequence | protein production |
| --- | --- |
| MAYSLSPKKAGLPREVLKWLQSLDLSFFPKNVRRDFSNGYLVAEVFSWYFPRDFQMHSFDNGTSLAAKQSNWSQIEKFFVKQNISLVKEMIDGTIHCKPGAAELLVQEIYTILTNRSIQAIQRVEQGFTDKPYQDQLPMVARATASVSIKSNLSLTEVKAEPNIITNQRKVLAIIHRHLEQRKEERVQDPKRFNVKPTLGEQAVRLLAHQHEPNLQMNTSQAAC | failed |
| QVYKAKFGTPNRGWVIIVHGLGEHSGRYSKLVSMLVNEGYAVYTFDWPGHGKSPGKRGHTSVEEAMEIIDFIIEEINDKPFLFGHSLGGLTVIRYAETRPEKIRGVIASSPALAKSPKTPSFMVALAKILGVLLPSLTLSNGIDPNLLSRNPDAVKRYIEDPLVHDRISAKLGRSIFKNMDLAHREAHKIKVPVLLLVGTGDVITPPEGARKLYGEIKVEDKEIVEFEGAYHEIFEDPEWGEEFHKKIVEWIKKH | not failed |
| GDGNITTENIPVSEYDCLELEGGGMVVNYTQSDAPEGLEIKTDRNIFEKYEFNVENHKLKIRPKKEFRKHTNFRPTEFMVTANSRNLKKLAAAGSTHVNINSPLQAEEFEAGLAGSGIIQFHDTASFTNLKIEIAGSGDFVGHKVYCEELNGDMAGSNTIVLGGTVGIAEFSIAGSGTVRAFDCTMDELECKIAGSGDIEAFVVNKIKAEIAGSGSVKYKGDPQDIQKKVMGSGKIEKVE | not failed |
| MEFLGSLLTFLIDIVGSFGYFGILLIVGLEYACFPLPSEVVLTFFGLSASQGEFSLIGVIIFSIIGGLLGSLICYAIGYYGGVPLQEWLGRKFPSSQKSMLALNKWFKKYGKPAVLLARIVPLTRTYVSLLAGAEKFSLKYFILYSSLGISIWNIFLVSLGYFIGDNLPLINSIMEKYTFVTLAILIIAVIIFIYLKFFKKEKNTSK | failed |
| MLTANIQAASSTRRYSDYVTRSWSHALPIGRKRINLDAIAQLAGERDIVGLQESDPGSLRSGFTNQTCYLAQRAGFHYWSHQPNRRMAGVASSANGLLSRLKPRQIHNHALPGRIPGRGVLLAKFGNGGFDSLVVAVVHLSLGVRSRMAQLVFIADLLAEYPNTILMGDFNCRADCSEMQVLYRRTRLQPPGVVIPTFPSWRPERAIDHILVSEGFYICKTEAVPAAFSDHLAVSMDLVIPQRILRLEHHHHHH | failed |
| MNHTLQFPKAPEHLLQALNEVIPKCKLMAQQLPETAISLWLIPPVFPTERLDDDIIRRIWSDTPYWIFCWASGLAMAQWLLAEPHHVKDKVVLDFGAGSGVVAIAAKMAGAKRVICCDIDETSLNACRENALLNNVELEYLNDLYLSESVDILLAADVLYDQSNRFFLDEFLKFAPEVWVADSRVKNFSHPGYIKIDERSATTWPDLDEAKEFRNVSFYKTL | failed |
| MNAKPKDTVIANARIVLADRVIEQGWLALANGRVAEIGEGRAPAGAEDAGGDLIMPGLIELHTDHLEAHYVPRPKVFWNPVAAVVSYDGQLATSGITTVFDSLRVWREDGAEEVDGRAGVLAAAITTARDADLLRADHFLHLRCEIPMPSVVEEAKELIDRPDVKLMSLMDHTPGQRQFRDEGKLRDYYRGKNGGKTDAQLDELFAKRFEYQKAYAATNMREIVALAHQYNIPLASHDDTTEENVADAVRDRVSVAEFPTTLEAARGLHQAGIDILMGAPNVVRGGSHSGNIAAVDLAREGLLDILSSDYIPSSLLMAALQLPEHVPAISLPAAVRTVTKAPAEAVGLSDRGEIAVGKRADLIRVHIAGSVPVVRSVWREGGRVA | failed |
| AVEARQSATEAERRRHRLEQILKTVPSCVVQLDRDGQFVFANQRAIDVLGLSQSELKDRLYNDPEWEIRDLDGHPIPDAELPFRQVLETGQPLSDARHTIHWPDGTEKVLSVNGAPLFDDDGAVESVVCTLTDIT | not failed |
| MELGFPLLWLSLVLPVLASLTIVALPPRTAYWLVAITLAIPGIVSSYYAFQGVLSEGIIDPVSLNLSNIGIGVVALAVDGFSYPFVLGVSVVTALVAVYGYKYMEVRLREMEGEGERAPGHAAYLILYSIFSSTMLGIAYSLNFLLFIIFLELSLLSSFLLIAFYGYGDRRRIALLYFVWTHIAGALALLGGLYYVIKTGTFDVATVEGGRIVYFSSPADRSVYAAIAGVSLLLGMLVKMAVFGVHMWLPYAHAEAPTPISALLSPNLIGLGGYGIARFAAAFYPWLLEDLKPLLVGLAFVTIVYGGLVALSQLDFKRLLAYSSISQMGYMLLALSTLHPLGFAAASLIFLGHAVGKAVLFMTAGVFITEAHGLRNIARMGGLARLYPLTAAAALIGFLHLAGIPPAFGFWGELYLTLSVLNYPGYSDAVSLGLLAIILIVAFTVTAAYSFITMRRIFFGRPRADMDAREEVDGFKSTVVLLAVLGVALFLLAGPMVTDLAASSLAMVEAFLS | failed |
| MEIGVVGKPNVGKSTFFSAATLVDVEIANYPFTTIEANVGVTYAITDHPCKELGCSPNPQNYEYRNGLALIPVKMVDVAGLVPGAHEGRGLGNKFLDDLRMASALIHVVDATGKTDPEGQPTDYHDPVEDIEFLEREIDYWIYGILSKGWDKFAKRIKLQKIKLESAIAEHLSGIGVNENDVWEAMHKLNLPEDPTKWSQDDLLAFASEIRRVNKPMVIAANKADAASDEQIKRLVREEEKRGYIVIPTSAAAELTLRKAAKAGFIEYIPGASEFKVLRDMSEKQKRALMVIKEKVLDRFGSTGVQEVINRVVFDLLKLIPVYPVHDENKLTDQFGNVLPHVFLMKKGSTPRDLAFKVHTDLGKGFLYAINARTKRRVGEDYELQFNDIVKIVSVTR | not failed |
| MSAATPQPPAPHVVLGSGPAGTALARELVRRGHPVRLVDRRATGPAVEGVERFPADVGTADGARAAIRDAAVVYHCVNVAYHLQVEVMPRVQEAVLAAVEESGARLVVLDTVYPYGETGGAVMTEDSPWKATSRKGRMRAELDERYLAAHRSGRARVVLGRSADFVGPGVLNSSLGAAVFPGALTGGDVVAMGNIDLPHSYTGIEDVAAALATLGERPDGDGRVWHLPTAPAVSTREIHALIEKRVGRPLNVVVLERPRPFGPFDEQLMAEYEEMFYQHTEAQIMDSGAFERFFEAAPTPLADTLDATVTWYEAWLRSR | failed |
| MIIWSGWGFLVAIIVIINTLLGKAIFGSITGDATYFQDHSWPMAVMFIISGVMSWYLGKYINKPDGKVYIDAETGEKVMFNKKHSLFFIKMEYWGPILGVIAIVTLITR | failed |
| MLLLTPGPTPIPERVQKALLRPMRGHLDPEVLRVNRAIQERLAALFDPGEGALVAALAGSGSLGMEAGLANLDRGPVLVLVNGAFSQRVAEMAALHGLDPEVLDFPPGEPVDPEAVARALKRRRYRMVALVHGETSTGVLNPAEAIGALAKEAGALFFLDAVTTLGMLPFSMRAMGVDYAFTGSQKCLSAPPGLAPIAASLEARKAFTGKRGWYLDLARVAEHWERGGYHHTTPVLLHYALLEALDLVLEEGVAARERRAREVYAWVLEELKARGFRPYPKASPLPTVLVVRPPEGVDADRLVRALYAEGVAVAGGIGPTRGQVLRLGLMGEGARREAYQAFLKALDRALALA | not failed |
| MRRLNRKNNEALKKLNDRQRKVLYCIVREYIENKKPVSSQRVLEVSNIEFSSATIRNDMKKLEYLGYIYQPHTSAGRIPTDKGLRFYYEEMLKISKETSEADLAVETFKSMPLADPEKVLFLAGNLLARLTEGYVLIERPNTRDLKILRVMLIPVSEDYLIFSILTEFGVSKVTPIKTQERLNWEEIERQLNFLLRGRTVGEVLMGKIESLKGSGFLRLIESLIGETVERYLDAGLENLLKDETLTLEDIRNLLEEVKDQKFLESLVGEGITVRIGREIGRKKLEKFAVFSGKYFKGESPIGSVYLFTSKVTKYDRNHRVFEYILNRLSEYFTSTSRR | not failed |
| MKKEKIHLEYLLNATSKNILWSAISTPTGLEDWFADKVVSDDKTVTFCWGKTEQRQAGIVAIRAYSFIRFHWLDDENERDYFEIKMSYNELTGDYVLEITDFSEADEADDLKELWDSQVSKLRRTCGFLEHHHHHH | not failed |
| MSNEFEPYNKEIKKIEFTTWKYQASKDAEHSPSDEEELINELEVVKQEAFQKGYADGFQQAQEEINAIKAELSKWLDLIQKPVQILDEQLTQEIIQTIIWLSQHCVAVELSVNPDKLNDLLNKIKGELPSLTGKKSISMHPDDVRWIKEVFSESNIPGLHELLVADPALNRGDFYLQGEHSELDGRIQTRFTTLFNEYINKENIIP | failed |
| MMNKNKTLEYYNKNADNFAKTTINVDFYETQNRFSTLLPEHGYILDFGCGSGRDTKYFLDQGFYVDATDGSEEMCHIASNYTGIQVRRLLFEELDENKKYDGIWACSSILHLPKNELKAVFMKMLKALKEDGIIYTSFKYGDFEGERNGRYFTDFTEKTFEEFVGEIDNLQLKEEWITGDVRPGRGEEKWLNVILQKN | failed |
